The assay concerns the target microtubule polymers (alpha/beta tubulin). Kind of assay: co-sedimentation.

B1: Smc5-2KE hinge domain (residues 215 to 885, K624E K631E) (domain or fragment)
chain: LRELQGNEQSLQKDLDFKKAKIVHLRQESDKLRKSVESLRDFQNKKGEIELHSQLLPYVKVKDHKEKLNIYKEEYERAKANLRAILKDKKPFANTKKTLENQVEELTEKCSLKTDEFLKAKEKINEIFEKLNTIRDEVIKKKNQNEYYRGRTKKLQATIISTKEDFLRSQEILAQTHLPEKSVFEDIDIKRKEIINKEGEIRDLISEIDAKANAINHEMRSIQRQAESKTKSLTTTDKIGILNQDQDLKEVRDAVLMVREHPEMKDKILEPPIMTVSAINAQFAAYLAQCVDYNTSKALTVVDSDSYKLFANPILDKFKVNLRELSSADTTPPVPAETVRDLGFEGYLSDFITGDKRVMKMLCQTSKIHTIPVSRRELTPAQIKKLITPRPNGKILFKRIIHGNRLVDIEQSAYGSEQVFPTDVSIKQTNFYQGSIMSNEQKIRIENEIINLKNEYNDRKSTLDALSNQKSGYRHELSELASKNDDINREAHQLNEIRKKYTMRKSTIETLREKLDQLKREARKDVSQKIKDIDDQIQQLLLKQRHLLSKMASSMKSLKNCQKELISTQILQFEAQNMDVSMNDVIGFFNEREADLKSQYEDKKKFVKEMRDTPEFQSWMREIRSYDQDTKEKLNKVAEKYEEEGNFNLSFVQDVLDKLESEIAMVNHDES
The molecule B1 registered a fold reduction in binding affinity against wild-type Smc5 of 3 fold.

The values are drawn from paper doi:10.1101/2024.11.13.623393.
